The values that follow come from patent publication US20240294637A1 (DENDROCYTE BIOTECH, published 2024).

The Kd is the constant that tells how readily two partners part at equilibrium. What is called kon is the second-order rate constant of association. One may read the koff as a measure of how fast the partners let go of each other.

Experiment [1] deals with T1, CD300a on CHO transfectant cell surface (UniProt Q9UGN4 18-299, limits assumed).
T1 construct: whole, on cells; Said to be 'similarly expressed in CHO cells'; also called CD300a transfected cells
T1 sequence (looked up): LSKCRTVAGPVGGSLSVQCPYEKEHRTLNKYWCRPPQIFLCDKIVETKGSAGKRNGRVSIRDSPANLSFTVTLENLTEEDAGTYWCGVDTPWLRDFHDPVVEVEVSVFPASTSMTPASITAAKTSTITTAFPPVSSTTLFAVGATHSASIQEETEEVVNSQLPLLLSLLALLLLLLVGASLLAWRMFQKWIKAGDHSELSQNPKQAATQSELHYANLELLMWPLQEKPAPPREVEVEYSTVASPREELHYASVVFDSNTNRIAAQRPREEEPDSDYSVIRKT
The experiment can be described thus: flow cytometry on CD300a CHO transfectants. (A flow cytometer gives signals particle by particle.)

The target of experiment [2] is CD300f^L4 expressed in CHO cells (isoform of CD300f which includes the amino acid sequence …) (human) (UniProt Q8TDQ1). The experiment can be described thus: flow cytometry MFI ratio, CD300f^L4 against CD300f^S4 CHO transfectants.
The target of experiment [3] is T2, CD300f-Ig fusion protein (recombinant CD300f-Fc protein, Sino Biologicals) (human, UniProt Q8TDQ1 20-156).
T2 construct: domain: CD300f Ig-like domain; Bought reagent; also called CD300f-Fc recombinant protein; CD300f Ig-like domain; not shown: Ig Fc part (captured by goat anti-human Ig Fc / human IgG Fc capture sensor)
T2 sequence (looked up): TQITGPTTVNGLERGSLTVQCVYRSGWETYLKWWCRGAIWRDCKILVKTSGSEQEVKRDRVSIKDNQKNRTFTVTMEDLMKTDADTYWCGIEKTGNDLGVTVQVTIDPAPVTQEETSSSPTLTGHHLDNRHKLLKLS
The experiment can be described thus: Bio-Layer Interferometry (BLItz), CD300f-Fc on AHC biosensor, DCR-2 at 8.333, 16.67, 33.33, 66.67 and 0 nM, global 1:1 fit; same value in rows Index 1 to 4. Here is the method: (§1) DCR-2 was assessed for affinity for CD300f using a BLItz System (Fortebio, Pall Life Sciences). CD300f-Fc recombinant protein was immobilized to a human IgG Fc capture sensor. A five point dilution series of each mAb was tested for association and dissociation. Kinetic rate constants were estimated using BLItz Pro software with a global fitting 1:1 binding model.
(§2) The kinetics of binding of DCR-2 to CD300f-Fc recombinant protein was determined using Bio-Layer Interferometry analysis on a BLItz System (Fortebio, Pall Life Sciences).
On the technique in general: Biolayer interferometry detects binding as a change in optical thickness at a sensor tip.

Experiment [4] has as its target T2, CD300f-Ig fusion protein (recombinant …). In words: Bio-Layer Interferometry (BLItz), CD300f-Fc on AHC biosensor, DCR-2 at 8.333, 16.67, 33.33, 66.67 and 0 nM, global 1:1 fit; same value in rows Index 1 to 4; Ka Error 7.087e3. Here is the method: as §1, §2
Experiment [5] shares this target. The experiment can be described thus: Bio-Layer Interferometry (BLItz), CD300f-Fc on AHC biosensor, DCR-2 at 8.333, 16.67, 33.33, 66.67 and 0 nM, global 1:1 fit; same value in rows Index 1 to 4; Kd Error 3.58e-5. Here is the method:
as §1, §2

B1: Monoclonal antibody DCR-2 (antibody, V domains shown)
VH: MESGGGLVQPGGPLKLSCAASGFGFSGSWMSWVRQAPGKGLEWIGQINPDSSTINYTPSLKDKFIISRDNAKNTLYLQINKVRSEDTALYYCARRGFFEGYSAWFAYWGQGTLVTV
VL: ILMTQTPKFLLVSAGDRVTITCKASQSVSNDVAWYQQKPGQSPSLLIYYASNRNTGVPDRFTGSGYETDFTFTISTVQAEDLAVYFCQQDYTSPWTFGGGTKLEIKR
notes: also called mAb DCR-2
As to B1, the binding result in experiment [1] was “no binding”. The fold difference in binding compared to CD300f^S4 in experiment [2] is < 2 fold. The Kd in experiment [3] is 0.366 nM. Moreover, in experiment [4], the kon was determined as 514000 M⁻¹ s⁻¹. Moreover, in experiment [5], the koff amounted to 0.000188 s⁻¹.
